B1: scaffold 1 (RMP at -3) (structured_RNA)
RNA 1: UUUUCAUGCAUCGCGUAGGCUCAUACCGUAUUGAGACCUUUUGGUCUCAAUACGGUA
RNA 2: UGAGCCUACGCGAUG
modifications: remdesivir monophosphate (RMP, 1'-cyano-4-aza-7,9-dideazaadenosine) at position 13 of strand 2, written as A
B2: scaffold 3 (AMP at -4) (structured_RNA)
RNA 1: UUUUCAUGCACUGCGUAGGCUCAUACCGUAUUGAGACCUUUUGGUCUCAAUACGGUA
RNA 2: UGAGCCUACGCAGUG
B3: scaffold 2 (RMP at -4) (structured_RNA)
RNA 1: UUUUCAUGCACUGCGUAGGCUCAUACCGUAUUGAGACCUUUUGGUCUCAAUACGGUA
RNA 2: UGAGCCUACGCAGUG
modifications: remdesivir monophosphate (RMP, 1'-cyano-4-aza-7,9-dideazaadenosine) at position 12 of strand 2, written as A (oligo R-4)

Key:
[1] = target: T1, nsp12 (RdRp catalytic subunit);nsp8;nsp7 (SARS-CoV-2;SARS-CoV-2;SARS-CoV-2, UniProt P0DTD1;P0DTD1;P0DTD1 4393-5324;3943-4140;3860-3942, ||); assay: cryo-EM (complex isolated by SEC); conditions: protein: recombinant;recombinant;recombinant; copies: 1;2;1
[2] = target: T1, nsp12 (RdRp catalytic subunit);nsp8;nsp7; assay: cryo-EM (complex isolated by SEC); 1 mM Mg2+; AMP control for structure 2; conditions: protein: recombinant;recombinant;recombinant; copies: 1;2;1

Binder	binding result [1]	binding result [2]
B1	binds	–
B2	–	binds
B3	binds	–

Source: publication PMC7804290
